Data set [1] deals with T1, FL-CXXC5 (human, UniProt Q7LFL8 1-322).
T1 sequence: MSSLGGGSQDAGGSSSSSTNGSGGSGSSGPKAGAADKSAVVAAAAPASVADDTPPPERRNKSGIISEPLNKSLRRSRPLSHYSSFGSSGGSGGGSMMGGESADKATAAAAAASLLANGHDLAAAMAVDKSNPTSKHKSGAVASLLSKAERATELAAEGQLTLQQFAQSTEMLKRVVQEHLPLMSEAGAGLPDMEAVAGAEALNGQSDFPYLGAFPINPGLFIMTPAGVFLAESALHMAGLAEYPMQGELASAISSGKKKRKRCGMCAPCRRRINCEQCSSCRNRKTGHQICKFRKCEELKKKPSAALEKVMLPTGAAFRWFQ
As to the kind of experiment: ITC; ITC: 10 uM protein, 300 uM DNA, 25 C, VP-ITC, one-site fit; DNA annealed in 20 mM Tris pH 7.5, 150 mM NaCl; protein eluted in 20 mM Tris pH 7.5, 150 mM NaCl, 1. The following applies: protein: recombinant, tags: 6xHis removed by TEV (pET28a-MHL), blunt. A general note: Isothermal titration calorimetry measures the heat released or taken up as one component is titrated into another.

Data set [2] concerns the target T1, FL-CXXC5. Kind of data set: ITC; similar affinity to N1; ITC: 10 uM protein, 300 uM DNA, 25 C, VP-ITC, one-site fit; DNA annealed in 20 mM Tris pH 7.5, 150 mM NaCl; protein eluted in 20 mM Tris pH 7.5, 150 mM NaCl, 1. The following applies: protein: recombinant; tags: 6xHis removed by TEV (pET28a-MHL); blunt; self-complementary.
Data set [3] concerns the target T2, CXXC-D (CXXC domain of CXXC5) (human, UniProt Q7LFL8 250-309).
T2 sequence: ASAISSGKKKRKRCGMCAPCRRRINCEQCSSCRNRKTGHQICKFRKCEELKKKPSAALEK
Kind of data set: ITC; ITC: 10 uM protein, 300 uM DNA, 25 C, VP-ITC, one-site fit; DNA annealed in 20 mM Tris pH 7.5, 150 mM NaCl; protein eluted in 20 mM Tris pH 7.5, 150 mM NaCl, 1. The note with it: protein: recombinant; tags: 6xHis removed by TEV (pET28a-MHL); blunt.

B1: mCG DNA (dsDNA)
DNA 1: GTGATACCGGATCAGT
DNA 2: ACTGATCCGGTATCAC
modifications: 5-methyl-C at position 8 (GTGATACmCGGATCAGT); lower strand presumably also methylated at its central CpG
Regarding B1, the binding result with FL-CXXC5 [1] is recorded as “no binding”.

B2: CG DNA, distinct flanks (dsDNA)
DNA 1: GAGAGACCGGTCTCTC
DNA 2: GAGAGACCGGTCTCTC
On to B2, for which, in the data set with FL-CXXC5 [2], the binding result is “binds”.

B3: mCG DNA, distinct flanks (dsDNA)
DNA 1: GAGAGACCGGTCTCTC
DNA 2: GAGAGACCGGTCTCTC
modifications: 5-methyl-C at position 8 (central mCG; self-complementary, so both strands)
Consider B3, for which the binding result with FL-CXXC5 [1] (self-complementary) is “no binding”.

B4: AT DNA (dsDNA)
DNA 1: GTGATACATGATCAGT
DNA 2: ACTGATCATGTATCAC
In the case of B4, in the data set with FL-CXXC5 [1], the binding result is recorded as “no binding”.

B5: CG DNA (dsDNA)
DNA 1: GTGATACCGGATCAGT
DNA 2: ACTGATCCGGTATCAC
For B5, the binding result (in the data set with FL-CXXC5 [1]; in data set [3]) was “binds” throughout.

B6: AT DNA, distinct flanks (dsDNA)
DNA 1: GAGAGACATGTCTCTC
DNA 2: GAGAGACATGTCTCTC
On to B6, for which the binding result with FL-CXXC5 [1] (self-complementary) is listed as “no binding”.

(Values after publication PMC7136269, “CXXC5 as an unmethylated CpG dinucleotide binding protein contributes to estrogen-mediated cellular proliferation”.)
